Assay [1] has as its target T1, fibronectin modules (F3(1-2)) of NCAM (Rattus norvegicus, UniProt P13596).
T1 construct: amino acids 507-611 and 507-705 of NCAM (SwissProt p13596), respectively; made in house; host or cells: Pichia pastoris KM71
Kind of assay: Binding of FGFR1-Ig2 derived peptides to immobilized fibronectin modules (F3(1-2)) of NCAM. Conditions: FIG. 5 and FIG. 6. As to the method:
(§1) Immobilization of the NCAM and FGFR modules and binding analysis were performed using a BIAcore2000 instrument (Biosensor AB, Sweden) at 25° C. using 10 mM sodium phosphate containing 150 mM NaCl (pH 7.4) as running buffer. Data were analyzed by nonlinear curve fitting using the manufacturer's software. The FGFR Ig module 2 and NCAM F3 modules 1-2 were immobilized on sensor chip CM5 using an amine coupling kit (Biosensor AB) as follows: the chip was activated by 20 μl activation solution; the protein was immobilized using 12 μl of 20 μg/ml protein in 10 mM sodium acetate buffer (pH 6.0); the chip was blocked by 35 μl blocking solution. The curves corresponding to the difference between binding to ligand (immobilized molecule) and a blank chip were used for analysis.

For assay [2], the target named is T2, FGFR Ig2-NCAM F3(1-2) binding (Mus musculus, UniProt P16092).
T2 construct: AGHHHHHH and amino acids 140-251 of FGFR (SwissProt p16092); made in house; host or cells: Pichia pastoris KM71
T2 sequence (P16092 140-251): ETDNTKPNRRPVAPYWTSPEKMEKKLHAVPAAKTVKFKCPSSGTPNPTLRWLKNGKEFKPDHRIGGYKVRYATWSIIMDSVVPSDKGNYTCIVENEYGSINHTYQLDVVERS
The assay can be described thus: SPR analysis of inhibition of FGFR Ig2-NCAM F3(1-2) binding. Also on record: species or system mouse FGFR1, rat NCAM. Particulars: 20 μM Ig2 module of FGFR, indicated concentrations of SOS; FIG. 4. On the procedure: as §1, with “The binding of 20 μM Ig2 module of FGFR to the immobilized NCAM F3 modules 1-2 was performed using indicated concentrations of SOS. The experiment was repeated 9 times. Immobilization” for “Immobilization”, “analysis. One of the identified clusters (the first one) is located in the close vicinity of the sites in Ig2 for binding of FGF, heparin and Ig2 (FIG. 3) (Plotnikov et al., 1999; Pellegrini et al., 2000). […] To verify this assumption, we tested sucrose octasulphate (SOS), a well-known heparin analogue, for its ability to inhibit binding of soluble Ig2 to the immobilized NCAM F3 modules.” for “analysis.”
A general note: SPR reads the build-up and loss of mass on a sensor chip optically.

Assay [3] deals with T3, FGFR Ig2-Ig3 construct (Mus musculus, UniProt P16092).
T3 construct: the double-module FGFR Ig2-Ig3 construct
T3 sequence (P16092 141-365 limits assumed): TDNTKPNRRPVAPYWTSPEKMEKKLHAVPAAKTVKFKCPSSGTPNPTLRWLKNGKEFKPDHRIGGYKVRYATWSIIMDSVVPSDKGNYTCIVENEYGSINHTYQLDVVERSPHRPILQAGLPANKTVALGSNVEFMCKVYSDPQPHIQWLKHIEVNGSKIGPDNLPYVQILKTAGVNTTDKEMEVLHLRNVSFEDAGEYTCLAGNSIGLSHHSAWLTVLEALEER
Conditions: SPR; Kiselyov et al., 2003; read-out: dissociation constant (Kd), NCAM F3 modules 1-2 binding to FGFR Ig2-Ig3 construct; cited from earlier work.

In assay [4] the target is T4, FGFR1 Ig2 module (Mus musculus, UniProt P16092).
T4 construct: AGHHHHHH and amino acids 140-251 of FGFR (SwissProt p16092); made in house; host or cells: Pichia pastoris KM71
T4 sequence (P16092 140-251): T2 sequence (P16092 140-251)
Kind of assay: SPR binding of soluble NCAM F3 modules 1-2 to immobilized FGFR Ig2 module. Conditions: 25° C., pH 7.4, FIG. 1B, estimated. The source says: (§2) To study the binding properties between the FGFR Ig2 module and NCAM, we used recombinant proteins of the NCAM F3 modules 1-2 and the FGFR1 Ig2 module. Both proteins were properly folded as judged by one-dimensional NMR.
(§3) The Ig2 module of mouse FGFR1 (IIIc isoform) and rat NCAM F3 modules 1-2 were produced. Both proteins were expressed in a KM71 strain of yeast expression system of P. pastoris (Invitrogen, USA). The FGFR Ig module 2 consists of AGHHHHHH and amino acids 140-251 of FGFR (SwissProt p16092) and the combined F3 modules 1 and 2 consist of AGHHHHHH and amino acids 507-611 and 507-705 of NCAM (SwissProt p13596), respectively. For the protein expression the following media were used: BMGH (0.1 M potassium phosphate pH 6.0, 3.4 g/L yeast nitrogen base (without amino acids and ammonium sulphate), 10 g/L ammonium sulphate, 400 μg/L D-biotin, 60 mg/L L-histidine, 2% glycerol) and BMMH (0.1 M potassium phosphate pH 6.0, 3.4 g/L yeast nitrogen base (without amino acids and ammonium sulphate), 10 g/L ammonium sulphate, 400 μg/L D-biotin, 60 mg/L L-histidine, 1% methanol). […]
(§4) Immobilization of the NCAM and FGFR modules and binding analysis were performed using a BIAcore2000 instrument (Biosensor AB, Sweden) at 25° C. using 10 mM sodium phosphate containing 150 mM NaCl (pH 7.4) as running buffer. Data were analyzed by nonlinear curve fitting using the manufacturer's software. […]

Assay [5] deals with T5, NCAM F3 modules 1-2 (Rattus norvegicus, UniProt P13596).
T5 construct: amino acids 507-611 and 507-705 of NCAM (SwissProt p13596), respectively; made in house; host or cells: Pichia pastoris KM71
The assay can be described thus: SPR binding of soluble FGFR Ig2 module to immobilized NCAM F3 modules 1-2. Particulars: 25° C., pH 7.4, FIG. 1A, estimated.
Text: as §2, §3, §4

Data on five molecules can be found in patent publication US8637465B2, “Fibroblast growth factor receptor-derived peptides binding to NCAM” (Kobenhavns Universitet, priority 2009, dated 2014).

By Kd is commonly meant a measure of binding affinity in units of concentration.

Entries after “also recorded” stand apart in the source; their conditions may differ.

“RWLKNGKEFK (Derived from FGFR) [SEQ ID NO:3, FGFR1-Ig2 derived peptide (amino acids 189-198)]”: the “binding to the immobilized fibronectin modules (F3(1-2)) of NCAM” value in assay [1] is listed as “binding”.

For `O=S(=O)(O)OC[C@H]1O[C@@](COS(=O)(=O)O)(O[C@H]2O[C@H](COS(=O)(=O)O)[C@@H](OS(=O)(=O)O)[C@H](OS(=O)(=O)O)[C@H]2OS(=O)(=O)O)[C@@H](OS(=O)(=O)O)[C@@H]1OS(=O)(=O)O` [SOS, sucrose octasulphate], the “inhibition of binding of soluble Ig2 to the immobilized NCAM F3 modules” value in assay [2] is listed as “capable of inhibiting; also recorded: inhibitory effect”.

In the case of “AKTVKFK (Derived from FGFR) [SEQ ID NO:2, FGFR1-Ig2 derived peptide (amino acids 171-177)]”, the “binding to the immobilized fibronectin modules (F3(1-2)) of NCAM” value in assay [1] was “binding”.

B1: NCAM F3 modules 1-2: recombinant rat NCAM fibronectin type III modules 1-2 with AGHHHHHH tag (SwissProt p13596) (protein)
chain: AGHHHHHHQADTPSSPSIDRVEPYSSTAQVQFDEPEATGGVPILKYKAEWKSLGEEAWHSKWYDAKEANMEGIVTIMGLKPETRYAVRLAALNGKGLGEISAATEFKTQPVREPSAPKLEGQMGEDGNSIKVNLIKQDDGGSPIRHYLVKYRALASEWKPEIRLPSGSDHVMLKSLDWNAEYEVYVVAENQQGKSKAAHFVFRTSAQ
Take B1: the Kd in assay [3] is 10 µM; in assay [4] it was 12 µM.

B2: FGFR Ig2 module: recombinant Ig2 module of mouse FGFR1 (IIIc isoform): AGHHHHHH and amino acids 140-251 of FGFR (SwissProt p16092) (protein)
chain: AGHHHHHHETDNTKPNRRPVAPYWTSPEKMEKKLHAVPAAKTVKFKCPSSGTPNPTLRWLKNGKEFKPDHRIGGYKVRYATWSIIMDSVVPSDKGNYTCIVENEYGSINHTYQLDVVERS
For the molecule B2, the Kd in assay [5] was 35 µM.
